Assay results published in article PMC6953194.

Key:
Test in all cases: SPR
[1] = molecular target: VRC01 expressed in the ΔXT/FT N. benthamiana plant line (VRC01ΔXF) (human)
[2] = molecular target: VRC01 co‐expressed with human β1,4‐galactosyltransferase in the ΔXT/FT plant line (VRC01Gal) (human)
[3] = molecular target: VRC01 expressed transiently in WT N. benthamiana (VRC01WT) (human)
[4] = molecular target: plant‐produced VRC01 variant lacking Fc N‐glycans, N297S (VRC01aglyco) (human)
[5] = molecular target: VRC01 antibody derived from HEK cells (VRC01HEK) (human)
Chain of VRC01 antibody derived from HEK cells (VRC01HEK) (human) (light, as listed by the source, chain 2 of 2, other chains not shown): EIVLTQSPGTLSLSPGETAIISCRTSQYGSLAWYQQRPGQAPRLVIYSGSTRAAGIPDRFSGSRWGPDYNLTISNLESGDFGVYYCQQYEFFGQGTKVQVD

Chain of recombinant human FcγRI ectodomain (P12314 16-292): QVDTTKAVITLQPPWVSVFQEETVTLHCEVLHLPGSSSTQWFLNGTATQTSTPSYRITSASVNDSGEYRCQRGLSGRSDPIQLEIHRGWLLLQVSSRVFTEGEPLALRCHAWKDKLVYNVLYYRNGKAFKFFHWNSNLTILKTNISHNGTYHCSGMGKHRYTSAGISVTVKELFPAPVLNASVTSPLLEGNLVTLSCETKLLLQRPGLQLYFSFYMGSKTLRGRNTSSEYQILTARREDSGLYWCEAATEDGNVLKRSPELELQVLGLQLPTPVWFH
Chain of VRC01 expressed transiently in WT N. benthamiana (VRC01WT) (human) (light, as listed by the source, chain 2 of 2, other chains not shown): as the sequence (light, as listed by the source, chain 2 of 2, other chains not shown) above
Chain of VRC01 expressed in the ΔXT/FT N. benthamiana plant line (VRC01ΔXF) (human) (light, as listed by the source, chain 2 of 2, other chains not shown): as above
Chain of VRC01 co‐expressed with human β1,4‐galactosyltransferase in the ΔXT/FT plant line (VRC01Gal) (human) (light, as listed by the source, chain 2 of 2, other chains not shown): as above
Chain of plant‐produced VRC01 variant lacking Fc N‐glycans, N297S (VRC01aglyco) (human) (light, as listed by the source, chain 2 of 2, other chains not shown): as above

| Kd [1] [nM] | Kd [2] [nM] | Kd [3] [nM] | half‐life of the antibody–FcγRI complex [3] [min] | Kd [4] [nM] | Kd [5] [nM] | Substance |
| --- | --- | --- | --- | --- | --- | --- |
| 0.247 | 0.558 | 3 | 5 | 71 | 0.098 | recombinant human FcγRI ectodomain (from UniProt P12314 16-292) (receptor) |
| 2500 | 3700 | > 7000 | – | – | 3400 | recombinant human FcγRIIb ectodomain (from UniProt P31994 43-217) (receptor) |
